Read-outs that look alike come from different tables or passages of the source.

Test [1] addresses T1, human CD3ε antigen (human, UniProt P07766 23-126).
T1 construct: Immobilized on the BIAcore chip; The construct (tag, limits) is not described
The test can be described thus: BIAcore (SPR), antigen immobilized on chip, antibody injected at 5 concentrations. A general note: Surface plasmon resonance follows binding to a sensor surface in real time, without labels.

For test [2], the target named is T2, human CD19 antigen (human, UniProt P15391 20-291).
T2 sequence (looked up): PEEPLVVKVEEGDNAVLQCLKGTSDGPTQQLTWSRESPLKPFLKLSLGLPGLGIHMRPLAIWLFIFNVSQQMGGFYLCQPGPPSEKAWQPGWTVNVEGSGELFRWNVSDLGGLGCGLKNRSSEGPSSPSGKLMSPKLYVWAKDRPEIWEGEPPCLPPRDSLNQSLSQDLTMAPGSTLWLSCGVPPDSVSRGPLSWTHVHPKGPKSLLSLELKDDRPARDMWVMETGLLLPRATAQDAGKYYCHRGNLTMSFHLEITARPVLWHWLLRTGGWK
The test can be described thus: BIAcore (SPR), CD19 captured on anti-His chip, antibody injected at 5 concentrations.

For test [3], the target named is T1, human CD3ε antigen. The test can be described thus: BIAcore (SPR), antigen immobilized on chip, antibody injected at 5 concentrations. This is another data set of the same source.
In test [4] the target is T2, human CD19 antigen. The test can be described thus: BIAcore (SPR), CD19 captured on anti-His chip, antibody injected at 5 concentrations. The source holds these as a separate data set.
Test [5] has as its target T3, CD20 (stably transfected into K562 cells) (UniProt P11836 1-297, limits assumed).
T3 sequence (looked up): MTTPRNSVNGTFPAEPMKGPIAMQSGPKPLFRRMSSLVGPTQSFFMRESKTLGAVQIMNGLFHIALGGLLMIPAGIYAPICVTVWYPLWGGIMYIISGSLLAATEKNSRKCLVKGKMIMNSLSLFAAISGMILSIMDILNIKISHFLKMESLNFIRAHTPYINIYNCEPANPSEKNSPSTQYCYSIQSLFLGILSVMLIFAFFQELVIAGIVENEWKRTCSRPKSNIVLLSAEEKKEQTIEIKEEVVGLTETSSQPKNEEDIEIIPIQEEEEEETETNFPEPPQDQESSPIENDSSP
The test can be described thus: cell-based or functional assay.

T1 sequence (P07766 23-126): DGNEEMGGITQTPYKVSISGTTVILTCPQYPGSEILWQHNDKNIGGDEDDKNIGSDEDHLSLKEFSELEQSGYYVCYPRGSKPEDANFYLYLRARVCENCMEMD

B1: CD3XCD19 bispecific antibody (antibody A) (bispecific antibody)
chain 1: EIVLTQSPATLSVTPGERATLSCSASSSVSYMHWYQKKPGQAPRLLIYDTSKLASGIPARFSGSGSGTDFTLTISSLEPEDFAVYYCFQGSVYPFTFGCGTKLEIKRTVAAEVQLVESGGGLVQPGGSLRLSCAASGFTFNTYAMNWVRKAPGKGLEWVGRIRSKYNNYATYYADSVDKGRFTISRDDSKNSLYLQMNSLKTEDTAVYYCVRHGNFGNSYVSWFAYWGQGTLVTVSS
chain 2: EAVVTQEPSLTVSPGGTVTLTCRSSTGAVTTSNYANWVQDKPGQAPRGLIGGTNKRAPWTPARFSGSLLGGKAALTITGAQPEDEAEYYCALWYSNLWVFGGGTKLTVLRTVAAQVQLQESGPGLVKPSQTLSLTCTVSGGSISTSGMGVGWIRDHPGKCLEWIGHIWWDDDKRYNPALKSRVTISVDTSKNQFSLKLSSVTAADTAVYYCARMELWSYYFDYWGQGTTLTVSSASEPKSDKTHTCPPCPAPPVAGGPSVFLFPPKPKDTLMISRTPEVTCVVVDVSQEDPEVKFNWYVDGVEVHNAKTKPREEQFNSTYRVVSVLTVLHQDWLNGKEYKCKVSNKGLPSSIEKTISKAKGQPREPQVYTLPPCRDELTKNQVSLWCLVKGFYPSDIAVEWESNGQPENNYKTTPPVLDSDGSFFLYSKLTVDKSRWQQGNVFSCSVMHEALHNHYTQKSLSLSPGK
chain 3: DKTHTCPPCPAPPVAGGPSVFLFPPKPKDTLMISRTPEVTCVVVDVSQEDPEVKFNWYVDGVEVHNAKTKPREEQFNSTYRVVSVLTVLHQDWLNGKEYKCKVSNKGLPSSIEKTISKAKGQPREPQVCTLPPSRDELTKNQVSLSCAVKGFYPSDIAVEWESNGQPENNYKTTPPVLDSDGSFFLVSKLTVDKSRWQQGNVFSCSVMHEALHNRFTQKSLSLSPGK
notes: Three-polypeptide bispecific made in CHO3E7 cells; The description speaks of a disulfide bond between CD19 VL and VH, charge substitutions and a knob-in-hole Fc
What is called Kd is the constant that tells how readily two partners part at equilibrium. Read a low Kd as higher affinity. For orientation: koff means a measure of how fast the partners let go of each other. Higher therefore signals fast dissociation. By kon is commonly meant the rate constant with which the complex forms. In the case of B1, in the test with human CD3ε antigen [1], the Kd stood at 31.4 nM, the koff was found to be 0.0153 s⁻¹ and the kon was determined as 488000 M⁻¹ s⁻¹. In the test with human CD19 antigen [2], this molecule returned a Kd of 1.83 nM, a koff of 0.000669 s⁻¹ and a kon of 365000 M⁻¹ s⁻¹.

B2: CD3XCD19XCD20 tri-specific antibody (antibody #1) (other)
chain 1: EIVLTQSPATLSVTPGERATLSCSASSSVSYMHWYQKKPGQAPRLLIYDTSKLASGIPARFSGSGSGTDFTLTISSLEPEDFAVYYCFQGSVYPFTFGCGTKLEIKRTVAAEVQLVESGGGLVQPGGSLRLSCAASGFTFSTYAMNWVRQAPGKGLEWVGRIRSKYNNYATYYADSVKGRFTISRDDSKNSLYLQMNSLRAEDTAVYYCVRHGNFGNSYVSWFAYWGQGTLVTVSS
chain 2: QAVVTQEPSLTVSPGGTVTLTCRSSTGAVTTSNYANWVQQKPGQAPRGLIGGTNKRAPWTPARFSGSLLGGKAALTLSGAQAEDEADYYCALWYSNLWVFGGGTKLTVLRTVAAQVQLQESGPGLVKPSQTLSLTCTVSGGSISTSGMGVGWIRDHPGKCLEWIGHIWWDDDKRYNPALKSRVTISVDTSKNQFSLKLSSVTAADTAVYYCARMELWSYYFDYWGQGTTLTVSSASEPKSSDKTHTCPPCPAPPVAGPSVFLFPPKPKDTLMISRTPEVTCVVVDVSQEDPEVKFNWYVDGVEVHNAKTKPREEQFNSTYRVVSVLTVLHQDWLNGKEYKCKVSNKGLPSSIEKTISKAKGQPREPQVYTLPPSRDELTKNQVSLWCLVKGFYPSDIAVEWESNGQPENNYKTTPPVLDSDGSFFLYSKLTVDKSRWQQGNVFSCSVMHEALHNHYTQKSLSLSP
heavy: QVQLVQSGAEVKKPGSSVKVSCKASGYAFSYSWINWVRQAPGQGLEWMGRIFPGDGDTDYNGKFKGRVTITADKSTSTAYMELSSLRSEDTAVYYCARNVFDGYWLVYWGQGTLVTVSSASTKGPSVFPLAPSSKSTSGGTAALGCLVKDYFPEPVTVSWNSGALTSGVHTFPAVLQSSGLYSLSSVVTVPSSSLGTQTYICNVNHKPSNTKVDKKVEPKSCDKTHTCPPCPAPPVAGPSVFLFPPKPKDTLMISRTPEVTCVVVDVSQEDPEVKFNWYVDGVEVHNAKTKPREEQFNSTYRVVSVLTVLHQDWLNGKEYKCKVSNKGLPSSIEKTISKAKGQPREPQVYTLPPSRDELTKNQVSLSCAVKGFYPSDIAVEWESNGQPENNYKTTPPVLDSDGSFFLVSKLTVDKSRWQQGNVFSCSVMHEALHNRFTQKSLSLSP
light: DIVMTQTPLSLPVTPGEPASISCRSSKSLLHSNGITYLYWYLQKPGQSPQLLIYQMSNLVSGVPDRFSGSGSGTDFTLKISRVEAEDVGVYYCAQNLELPYTFGGGTKVEIKRTVAAPSVFIFPPSDEQLKSGTASVVCLLNNFYPREAKVQWKVDNALQSGNSQESVTEQDSKDSTYSLSSTLTLSKADYEKHKVYACEVTHQGLSSPVTKSFNRGEC
notes: Tri-specific antibody of four polypeptide chains
In the test with human CD3ε antigen [3], B2 returned a Kd of 25 nM, a dissociation rate constant (koff) of 0.00835 s⁻¹ and a kon of 334000 M⁻¹ s⁻¹. Further, in the test with human CD19 antigen [4], the affinity, expressed as Kd, was 1.32 nM; the koff stood at 0.000273 s⁻¹; the kon stood at 207000 M⁻¹ s⁻¹. For the same molecule, in test [5], the “EC50 of killing of K562-CD20 target cells by PBMC effector cells (absorbance at OD490)” value stood at 0.00122 nM.

The values are drawn from patent US20240352155A1 (CHIMAGEN BIOSCIENCES, published 2024).
